Results on one substance are retold here after PMC11697113, “The Hsc70 system maintains the synaptic SNARE protein SNAP-25 in an assembly-competent state and delays its aggregation [drawing 1]” (The Journal of Biological Chemistry, 2024).

In this assay the target is heat shock cognate 70 (Hsc70), human constitutively expressed Hsp70, wild type (human) (UniProt P11142).
heat shock cognate 70 (Hsc70), human constitutively expressed Hsp70, wild type (human), sequence (P11142 whole entry): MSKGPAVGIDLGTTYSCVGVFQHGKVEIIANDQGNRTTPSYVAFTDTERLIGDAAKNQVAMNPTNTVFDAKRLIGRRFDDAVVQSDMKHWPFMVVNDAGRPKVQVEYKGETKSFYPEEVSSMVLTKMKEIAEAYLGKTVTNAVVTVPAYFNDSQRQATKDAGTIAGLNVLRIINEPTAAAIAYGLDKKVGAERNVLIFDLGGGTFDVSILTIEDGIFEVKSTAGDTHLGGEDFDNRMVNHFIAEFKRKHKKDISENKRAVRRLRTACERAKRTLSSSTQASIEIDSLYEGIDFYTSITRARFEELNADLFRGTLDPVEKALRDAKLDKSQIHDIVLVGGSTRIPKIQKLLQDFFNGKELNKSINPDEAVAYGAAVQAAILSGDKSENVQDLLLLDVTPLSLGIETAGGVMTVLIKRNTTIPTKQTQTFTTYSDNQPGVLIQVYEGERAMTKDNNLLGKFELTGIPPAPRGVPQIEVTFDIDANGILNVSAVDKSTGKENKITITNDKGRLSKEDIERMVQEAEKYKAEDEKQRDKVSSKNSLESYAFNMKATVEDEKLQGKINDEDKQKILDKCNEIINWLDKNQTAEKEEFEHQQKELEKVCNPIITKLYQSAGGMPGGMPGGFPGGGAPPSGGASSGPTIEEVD

With “SNAP-25 (SNAP-25B, Cys-less CS mutant), His tag cleaved (from UniProt P60880-1 1-206) (natural protein)”, the lag time of SNAP-25 aggregation (50 μM SNAP-25, optical density at 360 nm, 37 °C) in the presence of Hsc70 (5 μM); ∼38 h without Hsc70 was determined as 65 h.
